Protein production data for 20 sequences are collected here from a protein production outcome set (Wang et al. 2014).

This data set is described as follows: label from the status in PepcDB records.
“MSQLPTLIADLALILICAGVMTLLFKKLKQPLVLGYVVAGFLASPHMPYTPSVMDTANIKTWADIGVIFLLFALGLEFSFKKIVKVGGSAIIAACTIIFCMILLGIGVGMGFGWHRMDSLFLGGMIAMSSTTIIYKAFDDLGLRKKQFTGLVLSILILEDILAIVLMVMLSTMAVSHNFEGTEMLESIGKLLFFLILWFVVGIYLIPEFLKRCRKLMGEETLLIVSLALCFGMVVMAANTGFSAAFGAFIMGSILAETIEAESIDRLVKPVKDLFGAIFFVSVGMMVDPAMIIEYAIPIIVITIAVILGQATFGTFGVILSGKPLKTAMQCGFSLTQIGEFAFIIASLGVSLHVTSDFLYPIVVAVSVITTFLTPYMIRLAEPASSFVDAHLPASWRKFLMRYSSGSQTVLNHENLWKKLLLAMVRITVVYSIVSISIIALSFRFVVPFFKENLPHFWASLLGAVFIILCISPFLRAIMVKKNHSVEFMTLWHDNRANRAPLVSTIVIRIMIAALFVIFVISGLFKASIGLIIGVAVLAVLLMVWSRRLKKQSILIERRFFQNLRSREVRAEYLGEKKPEYAGRLLSHDLHLADLEIPGESTWAGKTLMELNLGKKYGIHIASILRGKRRINIPGGSVRLFPMDKIQVIGTDEQLNVFSSAMQSGAKIDWEMYEKGEMTLKQFIIDADSVFLGKTIRESGIRDKYHCMIAGVEREDGTLMVPDVNAPFEEGDVVWVVGEKENVYQLVDQKNEKIQVK”: the protein production entry was “failed”.

For “MTIFVLSSLLAILLAVAIYNSEPSSYAHRSPTYGIGYVFVYIIAAFLFSFVIIYLGRKKKLRIFKVIYSIVVAYVIFYVFLILLSIFLYNVYAIFTVSIVVAIVFFYMILFRNEWYVTDLAGFFLSVGISSIWGITFGVWAAVAFLIAFEIYDYIAVYKTRHMISLARYAVDSDLPMLFVLPENSGFTMRGLSFDNRGDGNVLMIGFGDIALPSIMVVSSAIYGISHILFFTVLPLAGGLIGMAVLYFWNRDRPAPGLPYINTGTIAGFLIAFLAFRVF”, the protein production result is “failed”.

Take “MMQSITTFMAALGKYDFLQSALITAIMVGVMSGIIGSFIILRGMSMMGDAISHAVLPGVAVAYMLGINVLIGASVFGILAASLIGFVASRSKIKTDTSIGIVFSAFYALGFILISLAESSTNLHHILFGNILAVSDTDMMTTTVVLGLVILFVAFFYKELLITSFDPTFAKTYGLKVQLLHYALMLVLTLVTVSALQTVGIILVVAMLITPAATAFLWTERLAVMLGLSALIGVLSSVVGLYLSYTLNWASGPAIVLVAAIFFGISFIISPKQALLPTLWKGQAAARRVTA”: the protein production entry is “failed”.

Consider “MLVMKCSKCSAEAIYYAKYNGLYLCRDHFNEMIEGRVKKEIRKQVEFHGDDVTISVALSGGKDSSVTLFLLHKILGNRKNMKIKAFTVDEGIDGYRPSGLESAKRLCTSLGIDHETISFYDSYGLTLDSIVKTNPVKIPCAYCGPLRRKLINEMADKQDADYVALGLNLDDYSQSILMNVAKGDFDRFIRMSPQTDRKVGLVRRIAPLRTILEKEVVLYAVTNDIPFDSSWCPYYSRAQRNVFREVVNKLSEENPSTKFAILKFFDRVRENITTGHEEVKLKRCKICGAPTERDVCTACSSLQEVNEMMAEH”, for which the protein production result is listed as “failed”.

On to “MSRDTVRPPCVHPGFARPLPARASLPFLGRVSPGDSSRRAGRDGRKWGMESGPAIFAGTVFALFGGGLLTWTVSRVRHRAPVAHDVNPVASATLAGLAAVSALVLGAWCFTHL”, for which the protein production entry is “failed”.

On to “EPPDGVRIVPVTDRAGVDLVADVHEKAFGTDSTRMRHQLLAQVTDDPDAVVAVVALAGDEPVSAARMELVPGTRFAGLWGGGTVEGERGRGIYRALVAHRAKVAADRGYRYVQVDATSQSRPVLARLGFEPLTTTTPYVS”, for which the protein production result was “failed”.

As for “EELEYKGMNTLQISNVDDLISFYQYADDRIPLISGHRGGRGKGYPENSMETFENTLSYTPATFEIDPRLTKDSVIVLFHDDTLERTSNGTGKVSDYTWEELQNFRLKDPEGNITNYRIPTLEEAIRWARGKTILILDKKDVPMERTAQLITDMQAEPYVMITVHDGASARFFYEKNPNFMFEAFVKTKEAVQDYEDNGIPWSHIMAYVGPKITPEVREVIDMLHERGVMCMISTAPSDDKLSTPESRAEAYRMIIRQGVDIIESDRPIEVAEAISSLIPVSSSKGKFFSTL”, the protein production result is “not failed”.

For the sequence “MSLARVLLNIHGTGDTVVLALCDEDLLGVELKYKGRTLHISEPFYSGKSMEPDRAAKKIREAVQEYEDEKTVAINALGELACSVVVDAGLAREDEIGELGGVPHVQMYILPREPFLEGHHHHHH”, the protein production entry is recorded as “not failed”.

As for “MAESTDQTEQLRELAEIGLEGYAPYLMNRIMGRYNANLRKEMTALGLSTAKMRALAILSAKDGLPIGTLGIFAVVEQSTLSRALDGLQADGLVRREVDSDDQRSSRVYLTPAGRAVYDRLWPHMRASHDRMFQGITPQERQAFLATLNKMLANIRVHEI”, the protein production result is recorded as “not failed”.

For the sequence “MAQPSTTYKFELNLTDLDRGVYESVKQTIARHPSETEERMTVRLLAYAFWYNEQLAFGRGLSDVDEPALWEKSLDDRVLHWIEVGQPDADRLTWCSRRTERTSLLAYGSLRVWEGKVIPAIKNLKNVNIAAVPQDVLEVLAKDMPRVIKWDVMISEGTVFVTDDRGQHEVQLQWLTGERG”, the protein production result was “not failed”.

Turning to “MIQLVIRLGLLALLIFWTLYLIRPFVTILVWALVLAVAFNPIFLVLAKILGGRAKLAAGLLTAINLAIVIGPAAWLGLGAVDGIRDFAGELAAGDLVIPSPPAAIKTWPLIGTPLYEFWDQASTNLRSVVQRIAPYLKPFAGTLLGIAGDAGVGTIKFLLSVVVAGCLFPYGPQLVAAGRSFLSRIVPEQSEHFLDLAGATIRAVAQGVIGIAVVQALLAGIGFKLAGIPIAGLLALLVLLLSIVQIGGAIIMLPVMIWIWTDKDVTVAVLLTLFLGIVSILDNILKPLVMGRGLTTPALVILIGVIGGTLGHGIVGLFIGPIVLSVAWELTVAWIRTDRASAASQATIDR”, the protein production result was “failed”.

Regarding “MAMVVGVAMGNIALGAETVGQINEAYKTKPMLKKPLDECSMRYKTIVDVDVHTAIISIKGNPKFAEGAVVDAGVEASICEGGFTKGQSPLTSLTQRMEKICDVTRAIIRMLL”, the protein production entry was “failed”.

As for “MSWMQNLKNYQHLRDPSEYMSQVYGDPLAYLQETTKFVTEREYYEDFGYG”, the protein production entry is given as “failed”.

For the sequence “MMKNMILPIAFTALIASMTACSDETDPILTQKNWDGTATYFQSSDEHGFSMYYKPQVGFVGDPMPFYDPVAKDFKVMYLQDYRPNPEATYHPIFGVATKDGATYESLGELISCGGRDEQDAAIGTGGTIYNPADKLYYTFYTGNKFKPSSDQNAQVVMVATSPDFKTWTKNRTFYLKGDTYGYDKNDFRDPFLFQTEDGVYHMLIATRKNGKGHIAEFTSADLKEWESAGTFMTMMWDRFYECPDVFKMGDWWYLIYSEQASFMRKVQYFKGRTLEDLKATTANDAGIWPDNREGMLDSRAFYAGKTASDGTNRYIWGWCPTRAGNDNGNVGDVEPEWAGNLVAQRLIQHEDGTLTLGVPDAIDRKYTSAQEVKVMAKDGNMIESGKTYTLGEGASVIFNRLKVHNKISFTVKTASNTDRFGISFVRGTDSASWYSIHVNADEGKANFEKDGDDAKYLFDNKFNIPADNEYRVTIYSDQSVCVTYINDQLSFTNRIYQMQKNPWSLCCYKGEITVSDVQVSTY”, the protein production entry was “failed”.

With “MIFIESITNSVPWVNSLALTLNSPLLATTNEAENAPIVLTGVLLTLVVIYLASKIGGELSRLVDLPPVLGELVAGVLVGASALHLVVFPESGAVAGDSVIMTILQFINNLTPDAVTAIFQSQSEAVSVLAELGVIILLFEIGLESDLKELQKVGYQATIVACVGVAVPFTAGTVGLISIFHAPVIPAIFAGAALTATSIGITSKVLSELGQLKSREGQIIVGAAVIDDILGIIVLAVVASLAKTGEVDVLNVIYLIVSATVFLIGSILLGKYFNQSFVAIANKLQTRGNLIIPAFIFAFFMAFLGNAIHLEAILGAFAAGLVLDETDKRKELDEQVKPIADILVPIFFVTVGAKVDLSVLNPVVPGNREGLIIATFLIVVAIIGKIVTGWAVFGQPGINRLAVGVGMIPRGEVGLVFAGIGSASGALDKPLQAAIIIMVILTTFLAPPLLRFAFKQSEEIKELEKADLLG”, the protein production entry is reported as “failed”.

For “MILLKSLYKGFFAAMKEENFEARCYNREKGGCVLIKTMQYKKTMATVVALIVALLLFGLIYDLLGVQKNELAAQKSAQPKVKTARVVANGDILIHDILYMSARKADDTYDFTPYFEYVKDWISGADLAIGDYEGTISPDYPLAGYPLFNAPEEIAGALKNTGYDVVDLAHNHILDSQLDGALNTKKVFHQLGIDSIGIYDKDRSKESFLIKNVNGIKIAILGYSYGYNGMEATLSQEDYEKHMSDLDEAKIKKELQLAEKKADVTIVMPQMGTEYALEPTAEQKELYHKMIDWGADVVLGGHPHVIEPSETVIKGRQKKFIIYSMGNFISNQRLETVDDIWTERGLLMDLTFEKKDNKTKIKTVEAHPTMVLAKGKGIVGKEGFELYNYRTMVLEDFIKGGKYHDKIDEETKAKVALAYQEINDLVNLKW”, the protein production entry is recorded as “failed”.

With “MTTARPAKARNEGQWALGHREPLNANEELKKAGNPLDVRERIENIYAKQGFDSIDKTDLRGRFRWWGLYTQREQGYDGTWTGDDNIDKLEAKYFMMRVRCDGGALSAAALRTLGQISTEFARDTADISDRQNVQYHWIEVENVPEIWRRLDDVGLQTTEACGDCPRVVLGSPLAGESLDEVLDPTWAIEEIVRRYIGKPDFADLPRKYKTAISGLQDVAHEINDVAFIGVNHPEHGPGLDLWVGGGLSTNPMLAQRVGAWVPLGEVPEVWAAVTSVFRDYGYRRLRAKARLKFLIKDWGIAKFREVLETEYLKRPLIDGPAPEPVKHPIDHVGVQRLKNGLNAVGVAPIAGRVSGTILTAVADLMARAGSDRIRFTPYQKLVILDIPDALLDDLIAGLDALGLQSRPSHWRRNLMACSGIEFCKLSFAETRVRAQHLVPELERRLEDINSQLDVPITVNINGCPNSCARIQIADIGFKGQMIDDGHGGSVEGFQVHLGGHLGLDAGFGRKLRQHKVTSDELGDYIDRVVRNFVKHRSEGERFAQWVIRAEEDDLR”, the protein production entry was “not failed”.

On to “MNPSDRKDAVNPFGKLTFLVVDDFENFRLSMRQMLRSCGADKIELVAHATPAIQYCTYNHVDVVLCDYNLGEGKNGQHVLEELRHKKLLKRSSLFLMVTAETSKEMVMGAREYQPDGYLTKPINRAMLEQRLGSLIKQRNALLPITREIDRENYPEAISLCLQTLPKQPRYKTWLMKTLGELYFMVGDLAHAQKVYDDVLNQRELSWARLGRCKVLLANRNFDQAVDGLKALIEKHPDYMEAYDLLAEGLQKQGRSAQAQQVLEKAAEHSPNALLRQKHLAELAGANQDIDTASQAWRQTVSLGTYSIHDNAEHYLSLAQSLSDLSEGDLDEEGAARSSEALSVLTKMEKRFDNDETIGLKSRIVQCRLHAGQGRHREAEKILTAVSSELESLEELPADMGLDFAKTLFRMGREDQAKRILGDLASRFDNDPDTLQKIENLLDEPVGFRQKLEARSMNRDGIKAFEAGDLDAAVEAFNKALAIVPDHAALNLNLVQVLMKQYDQNPEPALLAACQQRLDHLNKLPEQHRQHRRYLALTRKLKGLTA”, for which the protein production result is listed as “failed”.

For the sequence “MAANNSIEWRAVCEKFRLAQELSEIESKKDPENNPFRSKYKARDLLKEIHCSLKKIEIEEQGEAGDEADCESSQTADGEPEDGFEKTFTGDSAAGLRAARLAVLQYHLGVNHIETEELSAGELHLMVCMKLIDKCTTTRENVSLFIHVRNQLGILWAGRDEIEKAQGFLEIAETMYLVYMKEDGQPPLDLQDFFVPEGESQSFTGVLQLRSAVLRGESRSQERCRNRARAEYGDGLPAPSEDQQNSIHSGLLQLKW”, the protein production entry is listed as “failed”.

For “EMRKFLVVLDDSRECLNAMRFAAMRAAHTGGGVAILSIIPPDEFNHWIGVGEVMREEARERIHAHFEVFAKWMRDKQGVEPELVIREGEAVPEIIAHVQEDPEIGVLVLGAGTDKKGPGPLVSQLSRSSGSLPIPITIVPGDLSKE”, the protein production result is listed as “failed”.
